Here are results for one molecule from article PMC7889586, “Effects of Conserved Wedge Domain Residues on DNA Binding Activity of Deinococcus radiodurans RecG Helicase”.

One data set deals with T1, DrRecG-WD WT (Deinococcus radiodurans R1, UniProt Q9RT50 158-235).
T1 sequence: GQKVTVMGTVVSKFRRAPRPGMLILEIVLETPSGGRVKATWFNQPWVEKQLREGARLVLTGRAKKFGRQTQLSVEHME
The experiment in a line: EMSA; 100 nM HJ; near saturation at 160 nM protein; 5 mM EDTA; 50 mM Tris-HCl pH 8.0, 5 mM EDTA, 1 mM DTT, 100 ug/ml BSA, 6% glycerol, on ice 15 min; 100 nM HJ; 6% polyacrylamide gel at room temperature. As to conditions: protein: recombinant; tags: MBP (N-terminal fusion, pMAL-c2x); four-way junction of 4 strands, 1 copy each.

The target in the next data set is T2, EcRecG-WD QPW (Escherichia coli MG1655, UniProt P24230 59-135, F99Q;S100P;A101W).
T2 sequence: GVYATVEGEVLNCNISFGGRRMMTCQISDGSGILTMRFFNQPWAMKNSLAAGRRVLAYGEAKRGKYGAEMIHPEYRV
As to the kind of experiment: EMSA; 100 nM HJ; significantly increased vs EcRecG-WD WT; 5 mM EDTA; 50 mM Tris-HCl pH 8.0, 5 mM EDTA, 1 mM DTT, 100 ug/ml BSA, 6% glycerol, on ice 15 min; 100 nM HJ; 6% polyacrylamide gel at room temperature. To be noted: protein: recombinant; tags: MBP (N-terminal fusion, pMAL-c2x); four-way junction of 4 strands, 1 copy each. Background: A gel shift assay detects complexes by their altered migration in electrophoresis.

B1: Holliday junction (oligos 1-4) (structured_DNA)
DNA 1: GTCGGATCCTCTAGACAGCTCCATGATCACTGGCACTGGTAGAATTCGGC
DNA 2: CAACGTCATAGACGATTACATTGCTACATGGAGCTGTCTAGAGGATCCGA
DNA 3: TGCCGAATTCTACCAGTGCCAGTGATGGACATCTTTGCCACGTTGACCC
DNA 4: TGGGTCAACGTGGGCAAGATGTCCTAGCAATGTAATCGTCTATGACGT
As to B1, the binding result in the data set with DrRecG-WD WT and with EcRecG-WD QPW was “binds” throughout.
